Results taken from US20070032403A1, “Crystal structure of the ITK kinase domain” (Boehringer Ingelheim Pharmaceuticals, Inc., priority 2003, published 2007).

What was measured:
[1] = target: T1, GST-ITK/KD/G354 (wild-type ITK kinase domain) (Homo sapiens, UniProt Q08881); assay: Tec Family Kinase Assay (DELFIA), wild-type ITK kinase domain; format: biochemical; conditions: 15 μM ATP substrate mix
T1 construct: made in house; host or cells: Spodoptera frugiperda Sf21 cells, baculovirus

[2] = target: T2, GST-ITK/KD/G354/F437Y (ITK F437Y) (Homo sapiens, UniProt Q08881, F437Y); assay: Tec Family Kinase Assay (DELFIA), F437Y mutant ITK kinase domain; format: biochemical; conditions: for IC50: GST-ITK/KD/G354/F437Y mutant; for Fold Difference in IC50: ITK F437Y IC50 versus wild-type ITK IC50
T2 construct: made in house; host or cells: Spodoptera frugiperda Sf21 cells, baculovirus
T2 sequence (Q08881 with tags, fused parts or gaps F437Y): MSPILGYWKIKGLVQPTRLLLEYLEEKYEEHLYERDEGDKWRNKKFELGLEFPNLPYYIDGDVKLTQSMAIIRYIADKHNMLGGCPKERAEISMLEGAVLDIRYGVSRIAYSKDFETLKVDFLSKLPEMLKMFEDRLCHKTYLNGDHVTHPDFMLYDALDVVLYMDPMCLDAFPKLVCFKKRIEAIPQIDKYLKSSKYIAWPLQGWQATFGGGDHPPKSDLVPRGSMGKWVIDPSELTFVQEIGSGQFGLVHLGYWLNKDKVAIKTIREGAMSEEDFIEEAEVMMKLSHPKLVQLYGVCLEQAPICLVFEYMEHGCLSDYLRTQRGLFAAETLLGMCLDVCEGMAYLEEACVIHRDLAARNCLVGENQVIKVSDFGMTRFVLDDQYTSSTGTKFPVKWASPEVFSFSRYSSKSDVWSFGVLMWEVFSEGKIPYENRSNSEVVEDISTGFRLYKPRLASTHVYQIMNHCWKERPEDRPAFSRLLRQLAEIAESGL

poly Glu4: Tyr1 (PGTYR) = assay: Catalytic activity of ITK kinase domain constructs (kinase assay); format: biochemical; conditions: for Kinase Activity: Using 250 nM enzyme; for catalytic activity (in words): human ITK kinase domain fragments
Protocol: ITK is purified as a GST-fusion protein to test for catalytic activity. The kinase activity is measured using DELFIA (Dissociation Enhanced Lanthanide Fluoroimmunoassay) which utilizes europium chelate-labeled anti-phosphotyrosine antibodies to detect phosphate transfer to a random polymer, poly Glu4: Tyr1 (PGTYR). The screen utilizes the Zymark Allegro UHTS system to dispense reagents, buffers and samples for assay, and also to wash plates. The kinase assay is performed in kinase assay buffer (50 mM HEPES, pH 7.0, 25 mM MgCl2, 5 mM MnCl2, 50 mM KCl, 100 μM Na3VO4, 0.2% BSA, 0.01% CHAPS, 200 μM TCEP). Test samples initially dissolved in DMSO at 1 mg/mL, are pre-diluted for dose response (9 doses with starting final concentration of 3 μg/mL, 1 to 3 serial dilutions) with the assay buffer in 384-well polypropylene microtiter plates. […] Background wells are incubated with buffer, rather than 20 μL enzyme. The assay plates are incubated for 30 min at room temperature. Following incubation, the assay plates are washed three times with 100 μL wash buffer (50 mM Tris-HCL, pH 7.4, 150 mM NaCl, 0.05% Tween 20, 0.2% BSA). A 50 μL aliquot of europium-labeled anti-phosphotyrosine (Eu^3+-PT66, Wallac CR04-100) diluted in 50 mM Tris-HCl, pH 7.8, 150 mM NaCl, 10 μM DTPA, 0.05% Tween 40, 0.2% BSA, 0.05% BGG (1 nM final concentration) is added to each well and incubated for 30 min at room temperature. Upon completion of the incubation, the plate is washed four times with 100 μL of wash buffer and 50 μL of DELFIA Enhancement Solution (Wallac) is added to each well. After 15 min, time-resolved fluorescence is measured on the LJL's Analyst (excitation at 360 nm, emission at 620 nm, EU 400 Dichroic Mirror) after a delay time of 250 μs. An IC50 can be obtained by fitting the rates vs. compound/ligand concentration data into a simple competitive inhibitor model. Under these assay conditions, a 3-fold difference in compound potency (IC50) is considered within the variation of the assay. Preferred ligands will have an IC50<1000 nM.
A significant obstacle in the process of obtaining the 3-dimensional structure of a protein by X-ray crystallography is the identification of a protein fragment that is amenable to the formation of protein crystals of suitable quality. Since kinases often have multiple domains, one strategy that increases the likelihood of generating protein crystals of the kinase domain (catalytic) fragment has been to delete the other domains. Furthermore, by making a kinase domain fragment analogous to that of a related kinase for which a crystal structure has been determined, one may further increase the probability of generating suitable protein crystals. Using these concepts, the human ITK/KD/Q343 construct was generated. Theory predicts that a more compactly folded protein has a greater probability of producing high quality protein crystals. Therefore, the human ITK/KD/Q343 construct was subjected to limited proteolysis with trypsin to identify any fragments of the construct that are easily accessible to the protease and are thus likely to be less compactly folded. Using this strategy, the human ITK/KD/G354 and ITK/KD/S361 constructs were designed. To prioritize the three human ITK kinase domain protein fragments for crystallization trials, each was assayed for catalytic activity and for structural foldedness by circular dichroism-monitored thermal denaturation. […] Consequently, the ITK/KD/G354 construct was prioritized for structural studies since it was catalytically active and predicted to be tightly folded. To further increase the probability of obtaining suitable crystals, a murine construct (ITK/KD/G353) analogous to the human ITK/KD/G354 construct was generated. […]

[3] = Thermal denaturation of ITK constructs (circular dichroism-monitored); format: physicochemical; conditions: for Tm: 5 μM construct, pH 7.0 buffer, 230 nm, 2 to 100° C. at 0.2° C./min; for Tm comparison (in words): thermal denaturation studies
Protocol: Thermal denaturation experiments were performed on a Jasco J-720 spectropolarimeter equipped with a Peltier thermostatic cell holder. For each measurement, a 1 cm quartz cuvette was loaded with 5 μM ITK kinase domain construct in a pH 7.0 buffer containing 10 mM sodium phosphate, 100 mM NaCl and 1 mM TCEP. Absorbance data at 230 nm was collected as the temperature was scanned from 2 to 100° C. at a ramp rate of 0.2° C./min. The melting temperature (Tm) for each sample was calculated as the maximum deflection point of the first derivative of the melting transition using Origin (version 7.0).
A significant obstacle in the process of obtaining the 3-dimensional structure of a protein by X-ray crystallography is the identification of a protein fragment that is amenable to the formation of protein crystals of suitable quality. Since kinases often have multiple domains, one strategy that increases the likelihood of generating protein crystals of the kinase domain (catalytic) fragment has been to delete the other domains. Furthermore, by making a kinase domain fragment analogous to that of a related kinase for which a crystal structure has been determined, one may further increase the probability of generating suitable protein crystals. Using these concepts, the human ITK/KD/Q343 construct was generated. Theory predicts that a more compactly folded protein has a greater probability of producing high quality protein crystals. Therefore, the human ITK/KD/Q343 construct was subjected to limited proteolysis with trypsin to identify any fragments of the construct that are easily accessible to the protease and are thus likely to be less compactly folded. Using this strategy, the human ITK/KD/G354 and ITK/KD/S361 constructs were designed. To prioritize the three human ITK kinase domain protein fragments for crystallization trials, each was assayed for catalytic activity and for structural foldedness by circular dichroism-monitored thermal denaturation. […] Consequently, the ITK/KD/G354 construct was prioritized for structural studies since it was catalytically active and predicted to be tightly folded. To further increase the probability of obtaining suitable crystals, a murine construct (ITK/KD/G353) analogous to the human ITK/KD/G354 construct was generated. This murine ITK kinase domain construct has 3 conservative and 7 non-conservative amino acid substitutions when compared with the human ITK/KD/G354 construct which may alter the conformation or surface properties of the protein thus providing alternative opportunities for crystal formation.

T1 sequence (Q08881 with tags, fused parts or gaps): as the sequence (Q08881 with tags, fused parts or gaps F437Y) above, with Y311F counted along it

Molecule | IC50 [1] [nM] | IC50 [2] [nM] | Fold Difference in IC50 [2] | Kinase Activity (poly Glu4: Tyr1 (PGTYR)) [Fluorescent Units] | catalytic activity (in words) (poly Glu4: Tyr1 (PGTYR)) | Tm [3] [°C] | Tm comparison (in words) [3]
CNc1ccc2c(c1)nc(NC(=O)c1ccc(C#N)cc1)n2CCC(N)=O [Compound 1] | 460 | 1200 | 2.6 | – | – | – | –
Cc1ccc2c(c1)nc(NC(=O)c1ccc(C#N)cc1)n2CCC(N)=O [Compound 3] | 440 | 500 | 1.1 | – | – | – | –
CN(C(=O)C1CCCCC1)c1ccc2c(c1)nc(NC(=O)c1ccc(C#N)cc1)n2CCCN1CCCC1=O [Compound 7] | 15 | 160 | 10.7 | – | – | – | –
ITK/KD/Q343: human ITK kinase domain fragment comprising ITK residues 343-620 (SEQ ID NO. 9) (protein, listed as Homo sapiens) GSMQKAPVTAGLRYGKWVIDPSELTFVQEIGSGQFGLVHLGYWLNKDKVAIKTIREGAMSEEDFIEEAEVMMKLSHPKLVQLYGVCLEQAPICLVFEFMEHGCLSDYLRTQRGLFAAETLLGMCLDVCEGMAYLEEACVIHRDLAARNCLVGENQVIKVSDFGMTRFVLDDQYTSSTGTKFPVKWASPEVFSFSRYSSKSDVWSFGVLMWEVFSEGKIPYENRSNSEVVEDISTGFRLYKPRLASTHVYQIMNHCWKERPEDRPAFSRLLRQLAEIAESGL | – | – | – | 2000 | showed significant catalytic activity | 50.0 | –
ITK/KD/G354: human ITK kinase domain fragment comprising ITK residues 354-620 (SEQ ID NO. 1) (protein, listed as Homo sapiens) GSMGKWVIDPSELTFVQEIGSGQFGLVHLGYWLNKDKVAIKTIREGAMSEEDFIEEAEVMMKLSHPKLVQLYGVCLEQAPICLVFEFMEHGCLSDYLRTQRGLFAAETLLGMCLDVCEGMAYLEEACVIHRDLAARNCLVGENQVIKVSDFGMTRFVLDDQYTSSTGTKFPVKWASPEVFSFSRYSSKSDVWSFGVLMWEVFSEGKIPYENRSNSEVVEDISTGFRLYKPRLASTHVYQIMNHCWKERPEDRPAFSRLLRQLAEIAESGL | – | – | – | 910 | showed significant catalytic activity | 67.2 | higher Tm than ITK/KD/Q343
ITK/KD/S361: human ITK kinase domain fragment comprising ITK residues 361-620 (SEQ ID NO. 12) (protein, listed as Homo sapiens) GSMSELTFVQEIGSGQFGLVHLGYWLNKDKVAIKTIREGAMSEEDFIEEAEVMMKLSHPKLVQLYGVCLEQAPICLVFEFMEHGCLSDYLRTQRGLFAAETLLGMCLDVCEGMAYLEEACVIHRDLAARNCLVGENQVIKVSDFGMTRFVLDDQYTSSTGTKFPVKWASPEVFSFSRYSSKSDVWSFGVLMWEVFSEGKIPYENRSNSEVVEDISTGFRLYKPRLASTHVYQIMNHCWKERPEDRPAFSRLLRQLAEIAESGL | – | – | – | 30 | did not possess activity above background levels | 72.8 | highest Tm
